The values that follow come from the supplement of paper PMC10567573.

± gives the standard deviation.

A short description of the data set: protein stability index of a GFP-peptide fusion (GPS, HEK-293T) (PSI 1-6); higher = more stable.
Setting [1] is: treatment: DMSO, c terminus: a fixed tail appended.
[2] abbreviates: treatment: MLN4924 1 uM, 8 h, c terminus: a fixed tail appended.
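Further: 24-mer peptide tiles fused after GFP, lentivirally expressed, FACS-sorted into six equal bins by GFP/DsRed ratio, decoded by Illumina sequencing, PSI is the read-weighted mean bin number.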

For the sequence FYPALWPQLRICLRVSPAEQPRLE [FBXO33], the protein stability index came to 2.39 ± 0.46 under setting [1] and 2.3 ± 0.27 under setting [2].

As for FYSNLILQHEERETRQKKLEVAME [STK38L], the protein stability index reads like this: under setting [1], 3.08 ± 0.2; under setting [2], 3.08 ± 0.33.

GAHSNAPITAHAEVEVVEEAKCCC [CSNK1G1]: the protein stability index was 4.79 ± 0.22 under setting [1] and 5.23 ± 0.21 under setting [2].

For GALGMSNRDSYFYAAIVAVVAVHV [VMA21], the protein stability index under setting [1] was found to be 2.77 ± 0.45 and the protein stability index under setting [2] is 2.81 ± 0.22.

Take GALTPTPAPTTTTATREEASTSLP [CLPTM1]: the protein stability index is, setting by setting: under setting [1], 5.28 ± 0.33; under setting [2], 5.58 ± 0.22.

GANINAQTEETQETALTLACCGGF [ANKRD17] showed a protein stability index under setting [1] of 4.63 ± 0.15 and a protein stability index under setting [2] of 4.59 ± 0.31.

GARLVAACSAWLCPGLRLPGSLAG [AUH] showed a protein stability index under setting [1] of 2.55 ± 1.2 and a protein stability index under setting [2] of 3.26 ± 0.84.

GDSGFLVVRGGEVVHRSDEQQHYF [PPTC7]: the protein stability index is, setting by setting: under setting [1], 3.75 ± 0.41; under setting [2], 3.54 ± 0.23.

GDTLRTFSLVLVLDLSKPNDLWPT [DYNC2LI1]: the protein stability index was found to be 2.89 ± 0.37 under setting [1] and 2.82 ± 0.32 under setting [2].

As for GERVAARGYWGDIATGPFVAFGIE [DNAAF3], the protein stability index is, setting by setting: under setting [1], 2.05 ± 0.3; under setting [2], 2.35 ± 0.28.

In the case of GFALDILFAIANGFSPSYEFFAVT [SLC22A15], the protein stability index came out at 3.3 ± 0.042 under setting [1] and 3.29 ± 1.1 under setting [2].

GFAVKALWGRTQEEAEELAKEMSV [GFOD1] yielded a protein stability index under setting [1] of 4.24 ± 0.13 and a protein stability index under setting [2] of 4.07 ± 0.3.

Regarding GFFDVLGNDRRREWAALGNMSKED [ACBD3], the protein stability index is, setting by setting: under setting [1], 3.85 ± 0.44; under setting [2], 4.551 ± 0.018.

In the case of GFLPWLMNEVEKTMEYSMVGRTVL [RSPH3], the protein stability index runs as follows: under setting [1], 2.8 ± 0.54; under setting [2], 2.94 ± 0.41.

For GFLTVTNLGVENMNHYKKTTLEIH [PTPN9], the protein stability index under setting [1] was 1.93 ± 0.59 and the protein stability index under setting [2] is 1.92 ± 0.4.

Take GGEFQCGLEAASVYSDHTNTNNLT [RNF180]: the protein stability index runs as follows: under setting [1], 2.42 ± 0.36; under setting [2], 2.42 ± 0.29.

Turning to GGLATGIAGGLAGMGGIQNEKETM [KRT18], the protein stability index amounted to 4.95 ± 0.33 under setting [1] and 4.58 ± 0.39 under setting [2].

As to GGTPHCEPCQLPSESPGSLSEVLA [DNAAF3], the protein stability index amounted to 4.19 ± 0.49 under setting [1] and 4.56 ± 0.33 under setting [2].

With GHSQEKTHSREKSSQESGEEAGSQ [CHGB], the protein stability index under setting [1] is 5.52 ± 0.56 and the protein stability index under setting [2] is 5.45 ± 0.33.

Regarding GIKAQVALRLAELARRRRRRQARR [NOP53], the protein stability index worked out at 4.1 ± 0.34 under setting [1] and 3.85 ± 0.25 under setting [2].

For the sequence GIRLSENVIDRMKESSPSGSKSQR [CHCHD3], the protein stability index is, setting by setting: under setting [1], 4.65 ± 0.19; under setting [2], 4.72 ± 0.2.

Regarding GKAFPSGCSAVSEPASESVVGALP [TRAF3IP2], the protein stability index was 4.33 ± 0.14 under setting [1] and 4.59 ± 0.24 under setting [2].

For GKDHEILRRRIENGAKELWFFLQS [FUT8], the protein stability index runs as follows: under setting [1], 2.08 ± 0.65; under setting [2], 2.36 ± 0.27.

In the case of GKIVGSLCAIAGVLTIALPVPVIV [KCNA1], the protein stability index by setting is: under setting [1], 3.19 ± 0.34; under setting [2], 3.22 ± 0.44.

In the case of GKSFRQRPSLVIHLRIHTGEKPYK [ZNF449], the protein stability index by setting is: under setting [1], 2.72 ± 0.53; under setting [2], 2.61 ± 0.65.

For GKTDDTLALLNLACMMTITFLPYT [TMEM175], the protein stability index was found to be 3.21 ± 0.33 under setting [1] and 3.08 ± 0.16 under setting [2].

As to GKTMELFCQTDQTCICYLCMFQEH [TRIM29], the protein stability index reads like this: under setting [1], 2.34 ± 0.064; under setting [2], 2.33 ± 0.25.

For the sequence GLAGFFASVAMICAIASGSELSES [SLC29A1], the protein stability index by setting is: under setting [1], 3 ± 0.53; under setting [2], 2.9 ± 0.37.

For GLDPEPLPLMDLCRRSVRLALGRE [SPSB1], the protein stability index was 4.02 ± 0.61 under setting [1] and 3.62 ± 0.2 under setting [2].

Regarding GLEAPRDLEAKEVTPRTALLTWTE [TNXB], the protein stability index by setting is: under setting [1], 3.22 ± 0.4; under setting [2], 4.95 ± 0.29.

For the sequence GLGPTSEPFPSSDDSPRSALAAAT [SPAG8], the protein stability index by setting is: under setting [1], 4.95 ± 0.19; under setting [2], 5.18 ± 0.038.

GLRLRLPRRESLLRGLCRPLRPLL [C6orf223]: the protein stability index by setting is: under setting [1], 2.15 ± 0.13; under setting [2], 2.2 ± 0.29.

With GMADVGTVCDPARSCAIVEDDGLQ [ADAMTS4], the protein stability index reads like this: under setting [1], 4.62 ± 1.1; under setting [2], 5.33 ± 0.088.

In the case of GNDRRREWAALGNMSKEDAMVEFV [ACBD3], the protein stability index is, setting by setting: under setting [1], 4.11 ± 0.24; under setting [2], 4.3 ± 0.26.

As to GPEHATRLNGTAKGERRREPGGYD [DVL3], the protein stability index was found to be 5.13 ± 0.26 under setting [1] and 5.18 ± 0.19 under setting [2].

In turn, GPPGRSIGGAAPSLGALDLLGPAT [SERTAD1] displayed a protein stability index under setting [1] of 3.79 ± 0.14 and a protein stability index under setting [2] of 3.81 ± 0.11.

GQFVMKTRRTLKGHGNKVLCMDWC [GNB5] yielded a protein stability index under setting [1] of 2.16 ± 0.32 and a protein stability index under setting [2] of 2.32 ± 0.3.

For the sequence GQLVRNDSLWHRSDSAPRNKISRF [MFF], the protein stability index worked out at 3.66 ± 0.87 under setting [1] and 4.04 ± 0.21 under setting [2].

Take GQVIWGMSWAKLARQATNLKVNFF [FBXO39]: the protein stability index under setting [1] worked out at 2.2 ± 0.72 and the protein stability index under setting [2] was 2.2 ± 0.52.

Regarding GQWLGGRQIRTNWATRKPPAPKST [TIA1], the protein stability index came to 3.57 ± 0.3 under setting [1] and 3.73 ± 0.34 under setting [2].

GRHAQTVETLLRHGAHINLQSLKF [RIPK4]: the protein stability index by setting is: under setting [1], 2.34 ± 0.14; under setting [2], 2.65 ± 0.45.

For the sequence GRPGIVAWTLINLSFAAKQRELHS [DHCR7], the protein stability index is, setting by setting: under setting [1], 2.81 ± 0.31; under setting [2], 3.02 ± 1.

As for GSCGQGRTIRHVYCKTSDGRVVPE [ADAMTSL2], the protein stability index reads like this: under setting [1], 3.66 ± 0.31; under setting [2], 3.57 ± 0.58.

Turning to GSGVIGRSWAMLFASGGFQVKLYD [CRYL1], under setting [1], the protein stability index was determined as 2.33 ± 0.31.

In turn, GSHPQQTQKLEEIKENAQDTMRQI [TOR1AIP2] displayed a protein stability index under setting [1] of 5.27 ± 0.26 and a protein stability index under setting [2] of 5.38 ± 0.24.

As for GSQAGGSGSAGQYGSDQQHHLGSG [MYOZ1], the protein stability index was found to be 4.94 ± 0.23 under setting [1] and 5.17 ± 0.18 under setting [2].

Regarding GTEITIAFDFDYGNCKYKVDCACL [KMT2E], the protein stability index by setting is: under setting [1], 3.01 ± 0.52; under setting [2], 2.39 ± 0.5.

Consider GTPGPFTKEGGMLAYYEVCSWKGA [CHIT1], for which the protein stability index under setting [1] came out at 2.47 ± 0.17 and the protein stability index under setting [2] is 2.55 ± 0.55.

As to GVFKFLRSEAVAQLWGQKKKNSNM [ELF3], the protein stability index runs as follows: under setting [1], 2.83 ± 0.18; under setting [2], 2.41 ± 0.33.

As for GVKSRIQALRQMNEGAIDCVNYEG [DLC1], the protein stability index under setting [1] was 3.77 ± 0.32 and the protein stability index under setting [2] came to 3.87 ± 0.36.

For GVSALCAICGDRATGKHYGASSCD [HNF4A], the protein stability index runs as follows: under setting [1], 3.6 ± 0.2; under setting [2], 3.75 ± 0.45.

As for GWAKHIPGFSTLSLADQMSLLQSA [ESRRG], the protein stability index reads like this: under setting [1], 2.31 ± 0.22; under setting [2], 2.5 ± 0.16.

As to GYRGYQYILECDHHGGDYKHWREW [CRYBA1], the protein stability index stood at 2.16 ± 0.25 under setting [1] and 1.93 ± 0.14 under setting [2].

Consider HEEVYFEPSSSKDSDENSKPSVDT [MIA2], for which the protein stability index by setting is: under setting [1], 5.62 ± 0.33; under setting [2], 5.48 ± 0.31.

HFLENLDKSRKGELLKKSDLQKDF [PRIM1]: the protein stability index was 3.52 ± 0.21 under setting [1] and 3.95 ± 0.37 under setting [2].

Regarding HGEGNHIYAYDAKIEIQTLTGLFK [CASP6], the protein stability index reads like this: under setting [1], 2.17 ± 0.22; under setting [2], 2.12 ± 0.33.

Regarding HHCDDHLSLYQLSLERGTALFAQV [RSAD1], the protein stability index is, setting by setting: under setting [1], 2.22 ± 0.66; under setting [2], 2.03 ± 0.2.

As to HHHGRSRPDRSSQGGSLPSEEKGH [CHGB], the protein stability index was determined as 5.34 ± 0.06 under setting [1] and 5.31 ± 0.083 under setting [2].

Turning to HLAVDKNTTCVGRYPVCKFPSLQV [FEM1C], the protein stability index turned out to be 2.46 ± 0.25 under setting [1] and 2.44 ± 0.26 under setting [2].

Turning to HLPVTFPGKDYDADRQCQLTFGPD [ADAMTS4], the protein stability index by setting is: under setting [1], 4.12 ± 0.26; under setting [2], 4.38 ± 0.24.

Turning to HLTKKDLRVHLKMVDSFHRTSLQY [PPFIA4], the protein stability index came out at 2.24 ± 0.25 under setting [1] and 2.11 ± 0.41 under setting [2].

Regarding HLTVVAIFYGSGIFNYMRLGSTKL [OR3A1], the protein stability index reads like this: under setting [1], 3.1 ± 0.62; under setting [2], 2.76 ± 0.37.

Regarding HNRVSKEDEDIYKLRHDLKKTSIT [PLK2], the protein stability index under setting [1] turned out to be 4.02 ± 0.2 and the protein stability index under setting [2] is 4.12 ± 0.081.

HPKDGPSPGGTLMDLSERQEVSSV [DLC1]: the protein stability index reads like this: under setting [1], 5.15 ± 0.25; under setting [2], 5.23 ± 0.21.

Take HQCHKVIRGRYLVALGHAYHPEEF [PDLIM7]: the protein stability index is, setting by setting: under setting [1], 2.17 ± 0.29; under setting [2], 2.2 ± 0.62.

As to HRGLRCSWEGLAVLDSLLLTLLPQ [RSAD1], the protein stability index runs as follows: under setting [1], 3.06 ± 0.41; under setting [2], 3.07 ± 0.3.

In the case of HSLRAVSTDPPHHDHHDEFCLMP [BEX1], the protein stability index is, setting by setting: (treatment: DMSO, c terminus: native) 3 ± 0.6; (treatment: MLN4924 1 uM, 8 h, c terminus: native) 3.76 ± 0.5.

Turning to HSLVRSRHRIPEPEAAVLFRQMAT [TRIB3], the protein stability index reads like this: under setting [1], 3.18 ± 0.13; under setting [2], 3.31 ± 0.15.

With HTFRATFQEPLYPALRLWEGAISI [TRIM14], the protein stability index by setting is: under setting [1], 2.85 ± 0.57; under setting [2], 2.69 ± 0.71.

As for HTQAENAEFMRNFQKGQVTRDGFK [HMOX1], the protein stability index amounted to 4.5 ± 0.17 under setting [1] and 4.54 ± 0.23 under setting [2].

The sequence HTRSWAVLKLLLLLLLFGVAGGLV [LRRC59] had a protein stability index under setting [1] of 2.56 ± 0.44 and a protein stability index under setting [2] of 2.44 ± 0.35.

Regarding HTSSEYDMLREMFSDSRSNNDDDE [TAF7L], the protein stability index is, setting by setting: under setting [1], 5.57 ± 0.28; under setting [2], 5.24 ± 0.53.
